“Also recorded” adds a separate entry of the source. d = 2'-deoxy (DNA)
Experiments:
NgBR protein = NgBR protein level after siRNA transfection of HUVEC; assay type: cell-based, human; details: 72 hours after transfection
Method: Single NgBR cDNA clones were isolated by sib selection and sequenced. A NgBR-HA was created in pIRESneo vector (BD, Palo Alto, Calif.), with the HA tag at the carboxy terminus. To access the physical interaction of NgBR with Am-Nogo-B, 50 μg of solubilized extracts of CHO cells expressing control vector (pIRESneo) or NgBR-HA was incubated with 25 μg of purified Am-Nogo-B or buffer for 2 hours at room temperature. The HA-tagged NgBR was immunoisolated with anti-HA immunobeads (Roche, Indianapolis, Ind.) and associated proteins analyzed by Western blotting. For the Western blots, expression of NgBR-HA was detected by using anti-HA (Roche) and NgBR (Imgenex), respectively, and beta-actin (Sigma) or Hsp90 (BD Biosciences-Pharmingen) was used to control for loading.
(§1) NgBR siRNA oligonucleotides (SEQ ID NOS:2-5) with 3′ dTdT overhangs were synthesized by Qiagen. Control siRNA in experiments refers to a nonsilencing (NS) siRNA (NS forward: UUCUCCGAACGUGUCACGU, SEQ ID NO:7; NS reverse: ACGUGACACGUUCGGAGAA, SEQ ID NO:8) designed and synthesized by Qiagen. HUVEC and CHO stable cell lines were transfected with siRNA by using Oligofectamine. Quantification of NgBR mRNA and protein, ligand binding assay, and migration assay were performed at 72 hours after transfection.

NgBR mRNA = NgBR mRNA by quantitative PCR after siRNA transfection of HUVEC; assay type: cell-based, human; details: 72 hours after transfection, normalized to 18S
Method: as §1
Total RNA from cells was isolated by using the RNeasy kit (Qiagen). Reverse transcription was then performed by using 100 ng of RNA and the Superscript First-Strand Synthesis System kit (Invitrogen). Real-time PCR analysis was done with the iCycler iQ detection system using the iQ SYBR green Supermix kit (Bio-Rad). The NgBR mRNA level was normalized by housekeeping gene 18S. The following primers were used for NgBR: forward, 5′-[…]-3′ (SEQ ID NO:9) and reverse, 5′-[…]-3′ (SEQ ID NO:10). The following primers were used for 18S: forward, 5′-[…]-3′ (SEQ ID NO:11) and reverse, 5′-[…]-3′ (SEQ ID NO:12).

HUVEC [1] = assay: AP-Am-Nogo-B binding to HUVEC after siRNA transfection; assay type: cell-based, human; details: 72 hours after siRNA transfection
Method: (§2) To detect AP-Am-Nogo-B binding, cultures were washed with Hanks' balanced salt solution (HBSS) containing 20 mM HEPES, pH 7.5, and 1 mg/mL BSA (HBH). The plates were then incubated with AP-Am-Nogo-B in DMEM containing 20 mM Hepes, pH 7.5, and 1 mg/mL BSA for 2 hours at 4° C. The bound AP-Am-Nogo-B was detected by using the Blue Substrate kit (Vector Laboratories). The blue staining was examined by using the ODYSSEY Infrared Imaging System (Li-Cor, Lincoln, Nebr.) and confirmed by microscopy. Alternatively, the bound AP-Am-Nogo-B was extracted with Triton X-100, and AP activity was colorimetrically quantified by using p-nitrophenyl phosphate (Sigma) as substrate after heat inactivation of endogenous AP. Non-specific binding was determined by measuring binding in the presence of a 100-fold molar excess of recombinant Am-Nogo-B lacking the AP fusion protein. Specific binding was determined by subtracting the non-specific binding from total binding. For determination of apparent Kd, the binding of AP-Am-Nogo-B was measured in triplicate as described above and the Kd value was quantified by using the Scatchard plot program of GraphPad PRISM (one-site binding, linear regression) using the ratio of bound ligand to free ligand as the y axis and bound ligand (pM) as the x axis.
as §1

HUVEC [2] = assay: Am-Nogo-B-mediated chemotaxis of HUVEC after siRNA transfection; assay type: cell-based, human; details: 72 hours after siRNA transfection
Method: (§3) Cell migration was examined in modified Boyden chambers using 10 nM each of purified recombinant AP, AP fusion of Nogo-66 (AP-Nogo-66) or Am-Nogo-B. The transwell inserts (Costar transwell inserts; Corning) were coated with a solution of 0.1% gelatin (Sigma) in PBS at 4° C. overnight and then air-dried. VEGF at 50 ng/mL (1.1 nM) or recombinant Am-Nogo-B at various concentrations dissolved in medium 199 containing 0.1% BSA was added in the bottom chamber of the Boyden apparatus. HUVEC (200,000 cells) suspended in a 100 μL aliquot of medium 199 containing 0.1% BSA was added to the upper chamber. After 5 hours incubation, cells on both sides of the membrane were fixed and stained with a Diff-Quik staining kit (Baxter Healthcare, Miami, Fla.). The average number of cells from five randomly chosen high-power (×400) fields on the lower side of the membrane was counted.
as §1

full-length NgBR = molecular target: T1, full-length NgBR (Homo sapiens, UniProt Q96E22); assay: AP-Am-Nogo-B binding after S2 siRNA in cells expressing the full-length NgBR; assay type: cell-based
T1 construct: expressed in transfected cells
T1 sequence (Q96E22 1-293): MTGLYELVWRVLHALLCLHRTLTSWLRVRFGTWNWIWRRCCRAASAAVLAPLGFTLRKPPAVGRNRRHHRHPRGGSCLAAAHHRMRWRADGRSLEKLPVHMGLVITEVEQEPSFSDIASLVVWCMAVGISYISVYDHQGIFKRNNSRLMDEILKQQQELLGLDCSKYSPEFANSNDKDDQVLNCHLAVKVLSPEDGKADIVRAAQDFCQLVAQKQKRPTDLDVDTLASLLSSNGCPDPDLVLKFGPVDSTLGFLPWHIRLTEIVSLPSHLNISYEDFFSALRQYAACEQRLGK
Method: as §2
NgBR siRNA oligonucleotides (SEQ ID NOS:2-5) with 3′ dTdT overhangs were synthesized by Qiagen. […]

HUVEC [3] = assay: Tube formation of HUVEC in 3-D collagen cultures (total network length); assay type: cell-based, human; details: Am-Nogo-B 80 nM, HUVEC treated with siRNA
Method: HUVEC were resuspended (final concentration of 1×10^6) in a mixture containing rat tail type I collagen (1.5 mg/mL) 1/10 volume of 10×M199 and 1 M Hepes, neutralized with NaOH. Droplets (0.1 mL each) of the cell/collagen mixture were placed in cell culture dishes and allowed to polymerize for 15 minutes at 37° C. Growth medium containing either vehicle or agonist was then added to each well. HUVEC were allowed to form tube-like structures for 1-2 days. To evaluate tube formation in 3-D cultures, cells were photographed using the program OPENLAB (Improvision) and total-network length, defined as an elongation of cell into tube-like structures typically seen in 3-D cultures, was quantified in five fields for each replicate per experiment by using the measurement tools provided with OPENLAB.

NgBR [4] = molecular target: T2, NgBR (Homo sapiens, UniProt Q96E22); assay: AP fusion protein binding to CHO cells expressing NgBR; set-up: an isolated cDNA encoding NgBR is 2,636 base pairs encoding an open reading frame of 293 amino acids; expressed in transfected cells; details: for surface binding of AP fusion domains to NgBR-expressing cells: CHO cells expressing NgBR (FIGS. 11, 14); for binding to CHO cells stably expressing NgBR: increasing concentrations, 2 hours at 4° C.
T2 sequence (Q96E22 1-293): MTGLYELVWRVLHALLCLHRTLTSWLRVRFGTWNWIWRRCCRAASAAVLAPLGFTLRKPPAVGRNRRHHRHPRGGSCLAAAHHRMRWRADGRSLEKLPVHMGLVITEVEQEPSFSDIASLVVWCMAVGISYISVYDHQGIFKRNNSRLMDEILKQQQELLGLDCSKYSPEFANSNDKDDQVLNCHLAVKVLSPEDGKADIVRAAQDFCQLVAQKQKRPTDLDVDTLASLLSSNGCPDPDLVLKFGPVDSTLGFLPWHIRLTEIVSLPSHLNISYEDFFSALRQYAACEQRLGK
Method: as §2
A recombinant AP-Am-Nogo-B fusion protein was used to screen a cDNA expression library from human heart (500,000 independent clones) transfected into COS or CHO cells using Lipofectamine 2000 (Invitrogen). COS-7 cells were cultured in high-glucose DMEM with 10% FBS. CHO cells were cultured in MEM-α with 5% FBS.

HUVEC [5] = assay: Binding of AP fusion proteins to the surface of HUVEC; set-up: species or system human; details: HUVEC (FIGS. 12, 15)
Method: as §2

Nogo receptor = molecular target: T3, Nogo receptor (Homo sapiens, UniProt Q9BZR6); assay: AP fusion protein binding to COS cells transfected with cDNA encoding the Nogo receptor; details: COS cells (FIG. 6)
T3 construct: expressed in transfected cells; host or cells: COS-7
T3 sequence (Q9BZR6 27-447): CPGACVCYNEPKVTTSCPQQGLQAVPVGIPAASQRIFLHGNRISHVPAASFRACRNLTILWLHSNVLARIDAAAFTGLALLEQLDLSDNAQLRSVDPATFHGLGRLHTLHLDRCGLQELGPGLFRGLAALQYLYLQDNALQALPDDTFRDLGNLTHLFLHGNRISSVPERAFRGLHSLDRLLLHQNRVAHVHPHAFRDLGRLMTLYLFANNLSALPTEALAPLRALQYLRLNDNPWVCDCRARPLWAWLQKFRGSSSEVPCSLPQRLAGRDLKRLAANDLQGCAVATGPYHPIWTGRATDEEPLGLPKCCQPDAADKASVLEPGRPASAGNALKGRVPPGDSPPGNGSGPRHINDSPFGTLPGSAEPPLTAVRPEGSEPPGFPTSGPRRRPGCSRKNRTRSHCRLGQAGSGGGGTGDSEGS
Method: as §2
(§4) For expression cloning of Am-Nogo-B receptor, pools of 5,000 arrayed clones from a human heart cDNA library (OriGene Technologies, Rockville, Md.) were transfected into COS-7 cells, and AP-Am-Nogo-B binding was assessed by using AP versus AP-Am-Nogo-B binding and detection of the AP product by near-infrared cell imaging (Li-Cor, Lincoln, Nebr.) or AP activity assays.

CHO cells = assay: AP fusion protein binding to untransfected CHO cells
Method: as §2

NgBR [6] = molecular target: T2, NgBR; assay: AP fusion protein binding to COS cells transfected with the isolated NgBR cDNA; set-up: an isolated cDNA encoding NgBR is 2,636 base pairs encoding an open reading frame of 293 amino acids; expressed in transfected cells; host or cells: COS-7 (A4); details: COS cells (FIG. 6)
Method: as §2, §4
Single NgBR cDNA clones were isolated by sib selection and sequenced. […] The HA-tagged NgBR was immunoisolated with anti-HA immunobeads (Roche, Indianapolis, Ind.) and associated proteins analyzed by Western blotting. For the Western blots, expression of NgBR-HA was detected by using anti-HA (Roche) and NgBR (Imgenex), respectively, and beta-actin (Sigma) or Hsp90 (BD Biosciences-Pharmingen) was used to control for loading.

HUVEC [7] = assay: HUVEC migration in modified Boyden chambers; assay type: cell-based, human; details: 10 nM purified recombinant protein, 5 hours
Method: The migratory response of human umbilical vein endothelial cells (HUVEC) in response to a gradient of recombinant, purified alkaline phosphatase (AP) fusion protein expressing Am-Nogo-B or a recombinant purified Am-Nogo-B was examined. HUVEC were cultured in M199 with 20% FBS and endothelial cell growth supplement (ECGS).
as §3

Molecule | NgBR protein level (NgBR protein) | level of NgBR mRNA (NgBR mRNA) | binding of AP-Am-Nogo-B to HUVEC (HUVEC [1]) | Am-Nogo-B-mediated chemotaxis of HUVEC (HUVEC [2]) | binding of AP-Am-Nogo-B in cells expressing the full-length NgBR (full-length NgBR) | Am-Nogo-B-stimulated increase in tube formation after siRNA (HUVEC [3]) | surface binding of AP fusion domains to NgBR-expressing cells (NgBR [4]) | binding to CHO cells stably expressing NgBR (NgBR [4]) | surface binding of AP fusion domains to HUVEC (HUVEC [5]) | binding to COS cells transfected with Nogo receptor cDNA (Nogo receptor) | binding to CHO cells (CHO cells) | binding to COS cells transfected with the isolated NgBR cDNA (NgBR [6]) | HUVEC migration (HUVEC [7])
S1: siRNA targeting the coding region of NgBR mRNA; forward CCAGAAUUUGCAAAUAGUA, reverse UACUAUUUGCAAAUUCUGG (SEQ ID NO: 2, 3) (3' dTdT, sugars by position and backbone not given here) | down-regulates | downregulates | reduces |  |  |  |  |  |  |  |  |  | 
S2: siRNA targeting the 3' untranslated region of NgBR; forward GGAAAUACAUAGACCUACA, reverse UGUAGGUCUAUGUAUUUCC (SEQ ID NO: 4, 5) (3' dTdT, sugars by position and backbone not given here) | reduced | reduced | reduced | abolished | reduced | attenuated |  |  |  |  |  |  | 
AP-Am-Nogo-B: purified alkaline phosphatase (AP) fusion protein with residues 1-200 at the amino terminus of Nogo-B (protein, left off: small tags and cut ends; large carriers, purified alkaline phosphatase (AP) fusion protein with residues 1-200 at the amino terminus of Nogo-B) MEDLDQSPLVSSSDSPPRPQPAFKYQFVREPEDEEEEEEEEEEDEDEDLEELEVLERKPAAGLSAAPVPTAPAAGAPLMDFGNDFVPPAPRGPLPAAPPVAPERQPSWDPSPVSSTVPAPSPLSAAAVSPSKLPEDDEPPARPPPPPPASVSPQAEPVWTPPAPAPAAPPSTPAAPKRRGSSGSVVVDLLYWRDIKKTGV |  |  |  |  |  |  | did | permits the binding; also recorded: permitted binding | did | do not bind | minimal binding |  | 
alkaline phosphatase (protein, UniProt P05187 23-506, looked up, purified recombinant alkaline phosphatase, control for AP fusion proteins) Alkaline phosphatase, …: IIPVEEENPDFWNREAAEALGAAKKLQPAQTAAKNLIIFLGDGMGVSTVTAARILKGQKKDKLGPEIPLAMDRFPYVALSKTYNVDKHVPDSGATATAYLCGVKGNFQTIGLSAAARFNQCNTTRGNEVISVMNRAKKAGKSVGVVTTTRVQHASPAGTYAHTVNRNWYSDADVPASARQEGCQDIATQLISNMDIDVILGGGRKYMFRMGTPDPEYPDDYSQGGTRLDGKNLVQEWLAKRQGARYVWNRTELMQASLDPSVTHLMGLFEPGDMKYEIHRDSTLDPSLMEMTEAALRLLSRNPRGFFLFVEGGRIDHGHHESRAYRALTETIMFDDAIERAGQLTSEEDTLSLVTADHSHVFSFGGYPLRGSSIFGLAPGKARDRKAYTVLLYGNGPGYVLKDGARPDVTESESGSPEYRQQSAVPLDEETHAGEDVAVFARGPQAHLVHGVQEQTFIAHVMAFAACLEPYTACDLAPPAGTTD |  |  |  |  |  |  | did not bind | not | did not bind | do not bind | minimal binding | not | does not promote

Source: patent US8084228B2, “Nogo-B receptor antagonists” (Yale University, priority 2006, dated 2011)
